Data reported in patent US20240123070A1 (SHANGHAI GENBASE BIOTECHNOLOGY, published 2024).

These binders were tested against KRAS G13D antigen (G13D-RT6, SEQ ID NO: 20) loaded on Lovo-DPA0301:DPB0501 cells (human) (assay: cell-based or functional assay).

TCR Mut RLU/WT RLU [ratio] | Binder
0.98 | B8.2.4 TCR mutant β97V-T (TCR, V domains shown) V domain 1: AQKITQTQPGMFVQEKEAVTLDCTYDTSDPSYGLFWYKQPSSGEMIFLIYQGSYDQQNATEGRYSLNFQKARKSANLVISASQLGDSAMYFCAMRERTGTASKLTFGTGTRLQVTL V domain 2: DVKVTQSSRYLVKRTGEKVFLECVQDMDHENMFWYRQDPGLGLRLIYFSYDVKMKEKGDIPEGYSVSREKKERFSLILESASTNQTSMYLCASSQTTPPQHFGDGTRLSILE
0.8 | B8.2.4 TCR mutant β98P-D (TCR, V domains shown) V domain 1: AQKITQTQPGMFVQEKEAVTLDCTYDTSDPSYGLFWYKQPSSGEMIFLIYQGSYDQQNATEGRYSLNFQKARKSANLVISASQLGDSAMYFCAMRERTGTASKLTFGTGTRLQVTL V domain 2: DVKVTQSSRYLVKRTGEKVFLECVQDMDHENMFWYRQDPGLGLRLIYFSYDVKMKEKGDIPEGYSVSREKKERFSLILESASTNQTSMYLCASSQTVDPQHFGDGTRLSILE
0.63 | B8.2.4 TCR mutant β98P-V (TCR, V domains shown) V domain 1: AQKITQTQPGMFVQEKEAVTLDCTYDTSDPSYGLFWYKQPSSGEMIFLIYQGSYDQQNATEGRYSLNFQKARKSANLVISASQLGDSAMYFCAMRERTGTASKLTFGTGTRLQVTL V domain 2: DVKVTQSSRYLVKRTGEKVFLECVQDMDHENMFWYRQDPGLGLRLIYFSYDVKMKEKGDIPEGYSVSREKKERFSLILESASTNQTSMYLCASSQTVVPQHFGDGTRLSILE
0.81 | B8.2.4 TCR mutant β98P-W (TCR, V domains shown) V domain 1: AQKITQTQPGMFVQEKEAVTLDCTYDTSDPSYGLFWYKQPSSGEMIFLIYQGSYDQQNATEGRYSLNFQKARKSANLVISASQLGDSAMYFCAMRERTGTASKLTFGTGTRLQVTL V domain 2: DVKVTQSSRYLVKRTGEKVFLECVQDMDHENMFWYRQDPGLGLRLIYFSYDVKMKEKGDIPEGYSVSREKKERFSLILESASTNQTSMYLCASSQTVWPQHFGDGTRLSILE
0.54 | B8.2.4 TCR mutant β97V-Y (TCR, V domains shown) V domain 1: AQKITQTQPGMFVQEKEAVTLDCTYDTSDPSYGLFWYKQPSSGEMIFLIYQGSYDQQNATEGRYSLNFQKARKSANLVISASQLGDSAMYFCAMRERTGTASKLTFGTGTRLQVTL V domain 2: DVKVTQSSRYLVKRTGEKVFLECVQDMDHENMFWYRQDPGLGLRLIYFSYDVKMKEKGDIPEGYSVSREKKERFSLILESASTNQTSMYLCASSQTYPPQHFGDGTRLSILE
0.6 | B8.2.4 TCR mutant β98P-H (TCR, V domains shown) V domain 1: AQKITQTQPGMFVQEKEAVTLDCTYDTSDPSYGLFWYKQPSSGEMIFLIYQGSYDQQNATEGRYSLNFQKARKSANLVISASQLGDSAMYFCAMRERTGTASKLTFGTGTRLQVTL V domain 2: DVKVTQSSRYLVKRTGEKVFLECVQDMDHENMFWYRQDPGLGLRLIYFSYDVKMKEKGDIPEGYSVSREKKERFSLILESASTNQTSMYLCASSQTVHPQHFGDGTRLSILE
0.33 | B8.2.4 TCR mutant β98P-I (TCR, V domains shown) V domain 1: AQKITQTQPGMFVQEKEAVTLDCTYDTSDPSYGLFWYKQPSSGEMIFLIYQGSYDQQNATEGRYSLNFQKARKSANLVISASQLGDSAMYFCAMRERTGTASKLTFGTGTRLQVTL V domain 2: DVKVTQSSRYLVKRTGEKVFLECVQDMDHENMFWYRQDPGLGLRLIYFSYDVKMKEKGDIPEGYSVSREKKERFSLILESASTNQTSMYLCASSQTVIPQHFGDGTRLSILE
0.73 | B8.2.4 TCR mutant β98P-R (TCR, V domains shown) V domain 1: AQKITQTQPGMFVQEKEAVTLDCTYDTSDPSYGLFWYKQPSSGEMIFLIYQGSYDQQNATEGRYSLNFQKARKSANLVISASQLGDSAMYFCAMRERTGTASKLTFGTGTRLQVTL V domain 2: DVKVTQSSRYLVKRTGEKVFLECVQDMDHENMFWYRQDPGLGLRLIYFSYDVKMKEKGDIPEGYSVSREKKERFSLILESASTNQTSMYLCASSQTVRPQHFGDGTRLSILE
0.99 | B8.2.4 TCR mutant β98P-E (TCR, V domains shown) V domain 1: AQKITQTQPGMFVQEKEAVTLDCTYDTSDPSYGLFWYKQPSSGEMIFLIYQGSYDQQNATEGRYSLNFQKARKSANLVISASQLGDSAMYFCAMRERTGTASKLTFGTGTRLQVTL V domain 2: DVKVTQSSRYLVKRTGEKVFLECVQDMDHENMFWYRQDPGLGLRLIYFSYDVKMKEKGDIPEGYSVSREKKERFSLILESASTNQTSMYLCASSQTVEPQHFGDGTRLSILE
0.83 | B8.2.4 TCR mutant β98P-M (TCR, V domains shown) V domain 1: AQKITQTQPGMFVQEKEAVTLDCTYDTSDPSYGLFWYKQPSSGEMIFLIYQGSYDQQNATEGRYSLNFQKARKSANLVISASQLGDSAMYFCAMRERTGTASKLTFGTGTRLQVTL V domain 2: DVKVTQSSRYLVKRTGEKVFLECVQDMDHENMFWYRQDPGLGLRLIYFSYDVKMKEKGDIPEGYSVSREKKERFSLILESASTNQTSMYLCASSQTVMPQHFGDGTRLSILE
0.45 | B8.2.4 TCR mutant β98P-Q (TCR, V domains shown) V domain 1: AQKITQTQPGMFVQEKEAVTLDCTYDTSDPSYGLFWYKQPSSGEMIFLIYQGSYDQQNATEGRYSLNFQKARKSANLVISASQLGDSAMYFCAMRERTGTASKLTFGTGTRLQVTL V domain 2: DVKVTQSSRYLVKRTGEKVFLECVQDMDHENMFWYRQDPGLGLRLIYFSYDVKMKEKGDIPEGYSVSREKKERFSLILESASTNQTSMYLCASSQTVQPQHFGDGTRLSILE
0.67 | B8.2.4 TCR mutant β98P-L (TCR, V domains shown) V domain 1: AQKITQTQPGMFVQEKEAVTLDCTYDTSDPSYGLFWYKQPSSGEMIFLIYQGSYDQQNATEGRYSLNFQKARKSANLVISASQLGDSAMYFCAMRERTGTASKLTFGTGTRLQVTL V domain 2: DVKVTQSSRYLVKRTGEKVFLECVQDMDHENMFWYRQDPGLGLRLIYFSYDVKMKEKGDIPEGYSVSREKKERFSLILESASTNQTSMYLCASSQTVLPQHFGDGTRLSILE
0.52 | B8.2.4 TCR mutant β97V-W (TCR, V domains shown) V domain 1: AQKITQTQPGMFVQEKEAVTLDCTYDTSDPSYGLFWYKQPSSGEMIFLIYQGSYDQQNATEGRYSLNFQKARKSANLVISASQLGDSAMYFCAMRERTGTASKLTFGTGTRLQVTL V domain 2: DVKVTQSSRYLVKRTGEKVFLECVQDMDHENMFWYRQDPGLGLRLIYFSYDVKMKEKGDIPEGYSVSREKKERFSLILESASTNQTSMYLCASSQTWPPQHFGDGTRLSILE
0.94 | B8.2.4 TCR mutant β98P-S (TCR, V domains shown) V domain 1: AQKITQTQPGMFVQEKEAVTLDCTYDTSDPSYGLFWYKQPSSGEMIFLIYQGSYDQQNATEGRYSLNFQKARKSANLVISASQLGDSAMYFCAMRERTGTASKLTFGTGTRLQVTL V domain 2: DVKVTQSSRYLVKRTGEKVFLECVQDMDHENMFWYRQDPGLGLRLIYFSYDVKMKEKGDIPEGYSVSREKKERFSLILESASTNQTSMYLCASSQTVSPQHFGDGTRLSILE
0.5 | B8.2.4 TCR mutant β98P-A (TCR, V domains shown) V domain 1: AQKITQTQPGMFVQEKEAVTLDCTYDTSDPSYGLFWYKQPSSGEMIFLIYQGSYDQQNATEGRYSLNFQKARKSANLVISASQLGDSAMYFCAMRERTGTASKLTFGTGTRLQVTL V domain 2: DVKVTQSSRYLVKRTGEKVFLECVQDMDHENMFWYRQDPGLGLRLIYFSYDVKMKEKGDIPEGYSVSREKKERFSLILESASTNQTSMYLCASSQTVAPQHFGDGTRLSILE
0.73 | B8.2.4 TCR mutant β98P-G (TCR, V domains shown) V domain 1: AQKITQTQPGMFVQEKEAVTLDCTYDTSDPSYGLFWYKQPSSGEMIFLIYQGSYDQQNATEGRYSLNFQKARKSANLVISASQLGDSAMYFCAMRERTGTASKLTFGTGTRLQVTL V domain 2: DVKVTQSSRYLVKRTGEKVFLECVQDMDHENMFWYRQDPGLGLRLIYFSYDVKMKEKGDIPEGYSVSREKKERFSLILESASTNQTSMYLCASSQTVGPQHFGDGTRLSILE
0.47 | B8.2.4 TCR mutant β98P-T (TCR, V domains shown) V domain 1: AQKITQTQPGMFVQEKEAVTLDCTYDTSDPSYGLFWYKQPSSGEMIFLIYQGSYDQQNATEGRYSLNFQKARKSANLVISASQLGDSAMYFCAMRERTGTASKLTFGTGTRLQVTL V domain 2: DVKVTQSSRYLVKRTGEKVFLECVQDMDHENMFWYRQDPGLGLRLIYFSYDVKMKEKGDIPEGYSVSREKKERFSLILESASTNQTSMYLCASSQTVTPQHFGDGTRLSILE
0.25 | B8.2.4 TCR mutant β98P-Y (TCR, V domains shown) V domain 1: AQKITQTQPGMFVQEKEAVTLDCTYDTSDPSYGLFWYKQPSSGEMIFLIYQGSYDQQNATEGRYSLNFQKARKSANLVISASQLGDSAMYFCAMRERTGTASKLTFGTGTRLQVTL V domain 2: DVKVTQSSRYLVKRTGEKVFLECVQDMDHENMFWYRQDPGLGLRLIYFSYDVKMKEKGDIPEGYSVSREKKERFSLILESASTNQTSMYLCASSQTVYPQHFGDGTRLSILE
0.41 | B8.2.4 TCR mutant β98P-N (TCR, V domains shown) V domain 1: AQKITQTQPGMFVQEKEAVTLDCTYDTSDPSYGLFWYKQPSSGEMIFLIYQGSYDQQNATEGRYSLNFQKARKSANLVISASQLGDSAMYFCAMRERTGTASKLTFGTGTRLQVTL V domain 2: DVKVTQSSRYLVKRTGEKVFLECVQDMDHENMFWYRQDPGLGLRLIYFSYDVKMKEKGDIPEGYSVSREKKERFSLILESASTNQTSMYLCASSQTVNPQHFGDGTRLSILE
0.96 | B8.2.4 TCR mutant β98P-F (TCR, V domains shown) V domain 1: AQKITQTQPGMFVQEKEAVTLDCTYDTSDPSYGLFWYKQPSSGEMIFLIYQGSYDQQNATEGRYSLNFQKARKSANLVISASQLGDSAMYFCAMRERTGTASKLTFGTGTRLQVTL V domain 2: DVKVTQSSRYLVKRTGEKVFLECVQDMDHENMFWYRQDPGLGLRLIYFSYDVKMKEKGDIPEGYSVSREKKERFSLILESASTNQTSMYLCASSQTVFPQHFGDGTRLSILE
0.47 | B8.2.4 TCR mutant β98P-K (TCR, V domains shown) V domain 1: AQKITQTQPGMFVQEKEAVTLDCTYDTSDPSYGLFWYKQPSSGEMIFLIYQGSYDQQNATEGRYSLNFQKARKSANLVISASQLGDSAMYFCAMRERTGTASKLTFGTGTRLQVTL V domain 2: DVKVTQSSRYLVKRTGEKVFLECVQDMDHENMFWYRQDPGLGLRLIYFSYDVKMKEKGDIPEGYSVSREKKERFSLILESASTNQTSMYLCASSQTVKPQHFGDGTRLSILE
1.11 | B8.2.4 TCR mutant β98P-C (TCR, V domains shown) V domain 1: AQKITQTQPGMFVQEKEAVTLDCTYDTSDPSYGLFWYKQPSSGEMIFLIYQGSYDQQNATEGRYSLNFQKARKSANLVISASQLGDSAMYFCAMRERTGTASKLTFGTGTRLQVTL V domain 2: DVKVTQSSRYLVKRTGEKVFLECVQDMDHENMFWYRQDPGLGLRLIYFSYDVKMKEKGDIPEGYSVSREKKERFSLILESASTNQTSMYLCASSQTVCPQHFGDGTRLSILE
